{"source": "the DeepSol protein solubility set"}
{"assay": "soluble on expression in E. coli; label from the status in PepcDB or PDB records"}
{"sequence": "MAHHHHHHMVHWVISQFTTNVGLQQKSSIELLNEANREYESSSPFSVLVQHERAVERLTTAQRGLAASGAGSLARLDRDQLPSWTLRVIDEDCTMCFDNVTYASAVAADAGRSTNKTGHHKQKGLSVFATTSAPLGLMGPMLFAMASVTDDVDVAAELPRWQWVTWSYAQQRRFVHASQSRSTGERPRHLIVLGIPSTDQPMRYPLRDAQRATWLTYREVARTENNFTGALLQLYVFAAAEHDSEDSTHSAVDMVQLAPTVSEYAAATEQHLAVEAGDVNNAPPYLQRRVVLRDGWRDIPRSDDAVWRSPCAGVRTTVVTAASLVAGTSSLAALSAQLSLPVTPAFTAAAQYVCHVSAALWQEALHHRNSLWLDFLTDRKPTTKKKMGMSISWGIPTEVGMSQKTVLWLNYAYTAFPDVPYIMKGDDDMYLKVPQYLSDLRHVRGGWQKPRNLTVTIPHRGVIPPTLAIDDAEECLYRVWWTYSKKIAYGNGVGYILDRRLIQAALNPFDGFNALLMKLLTNPYDYRLEKEYLSLNMQYEDMHIGKQIRDHHDAVERFCPKKRVCYMADRRFRAHQILRPKPVKLTWISVMAHFGMPAIPYYVHYFHKNEFKVAEEAKRLIAQGIDAKTIEENATQRMHEWVASQVPSTLVGLGASFHLDWVRGDPHTAYTVAEEDEVAVYDVRYKLRRRNDVACVLESGKR", "soluble on expression in E. coli": "not soluble"}
{"sequence": "GPGSMSAPTPRTGIIAGFNKGHVTTRRPRQPSPNDRFAVPHKHLRAVKAIIADLVGLSPLEKRVQEFLRVGKEKRALKYCKKRLGDFTAAKKKRSKMEEALRHATKKHH", "soluble on expression in E. coli": "soluble"}
{"sequence": "MLCTHIKAEDCVERVPKGMFRKKQDMEDNNLFLEGNSNRGKVVKNQEIIKTFCDECDNCNKSLMCLTCGRILCGRNDSGHALHHFEETSHPVVIDCISFELYCYSCDDEVSLDFEPSLYGVLKSLKLLFDREDVMEGGDGPTIPAQPFHSRKNRISHEKSDKLRFSVKKTPIFLRNSIFLSGISENFDFSVKNGKKHQKSIFPPKKPKKSDLSAQKTSKSVFAPKQPKNSEFFNPKKHQISIFPTKNPQKFLFSVEKSIFSTINVQKCAPKKHQISIFPPKKPKNSDFPLKNPQFSFRTVTSVASTFTQKLHVAPASRNSKKKRGKKGKVSPMFVDTPPFQQQQGAAVIHDVTLSSTNSTSSGSGGATSSSEIAYRPRGMRNVGNTCFMNAVLQALASISEFREYIMSLSSLEDYIHDEKEPKNGGNYCYLTDEYRKLLISQSARSFREPTAPNEFREAFISVCPRFRGFRQHDSHEFMRYFMDSLHTEMRKCRKLPGMPDDKHTPISKYFEGTLQSSVICQTCRNCSNKIDEFMDLSLDIPAQRNASKVRLSDCLSTFFKLEMLEKGEKPECAKCKTKQTCSKQMFIRKLPQDSDEAPCTYSLQSIIVHIGYGCGSGHYIAFGKRNGRWFQFDDTVVKGVDEAHVSKQKAYVLLYTKIIRKID", "soluble on expression in E. coli": "not soluble"}
{"sequence": "MGSDKIHHHHHHMQVVYHLGAPCTDADQLIMSLLKNRLRLAQAGIFVPVPGRYRAVIRDTARALKGQPAGKEVQEALLDAIVDDAQVDRLVLSDPRFVCINRLVVQGAQIWPMIERAATGLRALFPEAHVEFFIGMRDPATLIPALFKASRFSDFAEFTENMQPHAVAWSETLRRLQLAHPDCRITAWCNEDTPLLWGEILRELAGVGPEGELDGINDLAVSIMEEEGLKRMGQWFGQNPPKTEAQRRRALTAFLERYAKAGEIEETLNLPGWDEALMAEMSQSYDQDMEVIARLPGVTLLVP", "soluble on expression in E. coli": "not soluble"}
{"sequence": "MGSDKIHHHHHHMAHLPQMKIPATYMRGGTSKGVFFSLTDLPAAAQVAGAARDAILLRVIGSPDPYGKHTDGMGGATSSTSKTVILSKSTQADHDVDYLFGQVSIDKPFVDWSGNCGNLTAAVGSFAISNGLIDPSRVPENGTAIVRIWQANIHKTIIAHVPITNGEVQETGDFELDGVTFPAAEVQVEFLDPADGDGAMFPTGNVVDELNVPGVGTFKATMINAGIPTIFINAADIQYQGTELQDDINNDDKALAMFETIRAYGAVKMGLIKHIDEAVARQHTPKVAFVAPAANYISSSGKAVNTDDIDLVVRALSMGKLHHAMMGTAAVAIGTAAAIPGTLVNLAAGGGELSAVRFGHPSGTLRVGAQAALVQGQWQVKKAIMSRSARVLMEGKVSIPQ", "soluble on expression in E. coli": "not soluble"}
{"sequence": "SLHELSIVESLIELCEENALNNKAYNVQEIYVKIGRLSGIEVDLFKRCFETFKENSNICKNAKLFIELAPLEILCLKCDQTSILEENVFKCPKCQSIEYKIIQGEDLHLMRLVMK", "soluble on expression in E. coli": "soluble"}
{"sequence": "MTQPAIQLTEYQRKWIEDKSRFKISLKARQTGFSFAVSLEVVLDAVERRTTWVLLSRGERQSKELMEKVAMHARAIGVACEELETTFKIDDKDIKQLEVRFPNGSKVIGLPANPDTARGFSGNVVLDEFAFHADSRKIWTALYPTITRGYKIRVISTPNGKSGKFYDLWMDNTGTWSKHFVDIYMAKEQGLDIDIDELRKGCESEDDWLQEFCCEFIDENGALLPYELITPCETDEATFTLPEDFTPQGDLTLGVDIGRKRDLTVMWVLEYTGTLYWTRAIHILEKQKFSVQREQLFTYLSMPRMRRACIDATGIGMQLAEEAVEAFGSKVEAVEFTGPVKQELAITQRRVFEDRAVRIPIDRVLRNDLHSVQKITTAAGNIRYAAERSEHGHADRFWALALALHAAINNPFVPLETKVARHSTMRRAMEGYG", "soluble on expression in E. coli": "not soluble"}
{"sequence": "MSLKSIAKAQNDFTIFKFGDSEIRVINKCGEPWFVAKDVCDALALTNSRKALTALDDDEKGVTLSYTLGGEQNLSIVSESGMYTLVLRCRDAVNKGSVPHKFRKWVTAEVLPSIRKHGEYVKGKKTTVEERTPLRDAVNMLVGKKGLRNDDAYNMVHQRFGIDSIDELSIEQIPLAVEYIHRVVLEGEFIGKQEKSTNELSAKEANSLVWLWDYANRSQALFRELYPALKQIQSNYSGRCYDYGHEFSYVIGMARDVLINHTRDVDINEPDGPTNLSAWMRLKNKELPPSPHHYEGHHHHHH", "soluble on expression in E. coli": "not soluble"}
{"sequence": "MLIDTDFFLSNRSDSLVLDVRSPEEYRRGHIPGAESFPLFSDAERAEVGTLYVRHSRQAAVERGLEFVGPRMAEMVREARSLAAGRDIILYCWRGGMRSESVAWLLSVAGLRIRRLRGGYKAYRRHFPDILKLYPWRFIVLGGYTGSGKTPILNELTQMGEQVIDLEGLAHHKGSAFGALGQEQQPTTEHFMNLLHDALSACDPNRPIWVESESKTIGRVFLPDDFYKVMRQAPLIELSVPRPVRIAHIAKEYGVYDAEALANSFEHIARRMGGAATTQAITALKEGRLEEAVSLALDYYDKAYAHSLAEFRESSSARLAVETDTPHETAIKLLELSHIKGLQS", "soluble on expression in E. coli": "not soluble"}
{"sequence": "MYLIEPIRNGKRITDGAVALAMQVYVQENLFLDDDILFPYYCDPKVEIGKFQNAVVETNQEYLKEHHIPVVRRDTGGGAVYVDSGAVNICYLINDNGIFGDFKRTYQPAIEALHHLGATEVEMSGRNDLVIDGKKVSGAAMTIANGRVYGGYSLLLDVDFEAMEKALKPNRKKIESKGIRSVRSRVGNIREHLAPQYQGITIEEFKDLMVCQLLQIETISQAKRYDLTEKDWQQIDALTERKYHNWEWNYGNAPQYRYHRDGRFTGGTVDIHLDIKKGYIAACRIYGDFFGKADIAELEGHLIGTRMEKEDVLATLNAIDLAPYLGAITAEELGDLIFS", "soluble on expression in E. coli": "soluble"}
{"sequence": "MFDFDGYMLRKAKSVNKALEAAVQMKEPLKIHESMRYSLLAGGKRVRPMLCIAACELVGGDESTAMPAACAVEMIHTMSLMHDDLPCMDNDDLRRGKPTNHMAFGESVAVLAGDALLSFAFEHVAAATKGAPPERIVRVLGELAVSIGSEGLVAGQVVDVCSEGMAEVGLDHLEFIHHHKTAALLQGSVVLGAILGGGKEEEVAKLRKFANCIGLLFQVVDDILDVTKSSKELGKTAGKDLVADKTTYPKLIGVEKSKEFADRLNREAQEQLLHFHPHRAAPLIALANYIAYRDN", "soluble on expression in E. coli": "soluble"}
{"sequence": "GPGSMYNSGGEVRSYAQRVFALYSRENVLSVSRFCLAWYVLWGKQPNPTVTELLFGRCDASGDGNVTKYPKEICEEGYAAPLRGSSSDYCKRPSGVNTVAVGASVPPNATLQRRISEEEFVRFAVAYYDSMGNDASDLSDVPGAANPFHAVPRVAHWAHFIALAGDKGYVTLQDILETENVAWLRPPEYEDGDVNPKGVRGGGRAALLSHAFAIADSNKDGKVVFGDVENYMRPLSS", "soluble on expression in E. coli": "not soluble"}
{"sequence": "MSIYYDLYENPKQEDAEEQKLLHARVVPSGTYTTKEFVERVSMMHHIPHAQLVGAVEAITDELQTLLSRGYIVEFGDLGHFSLTLSLEKEIIDRKEVRSPSIRLKNIKLKVKQTYKRELNSKMDLERISSPTRSNAKISEDECLKKLQDFLEKHPCINRADYCAITGMSRLQALHQLNLFIEKGIIQKYGNGKTVVYIRVV", "soluble on expression in E. coli": "not soluble"}
{"sequence": "MLVRDVMKSPVLTVGPEATLEEAYKLLLERGIRHLPVVEEGRLVGIVTDRDIRLATSHLNPKGPCPGCTRVGEVMTREVVTAHPLDPVEEAARVMRERKIGCLPVLEDEALVGIVTGIDLLDALLRLTGVTEPSGRLEVRLPDRPGELARLTGFLAGRGVNIHSLLSYPEGREFVRAVVRVNTLETHLLAEALRREGFDVLWPPKKPW", "soluble on expression in E. coli": "soluble"}
{"sequence": "MAHHHHHHMFQNIQTIILDVNDGEMRAGYSGECSPRYNSNLILGLPVGHGATLKHTIFPLLPEIKRDNVELIYGMKYIYDDNNSSKYEINFDVMEKLLEDISGSKALDDNFQDHPILLTEPNKTDRKYREKFTEMMFETYNVYQLFLSRRSVLSCYGCARTSGLVLDVERNCTNLCGIQEGYIFQKHIEEVPIGGDLIDRIYLAYLENVKNIKIYPYFTIEKGQSAEKETDEIRILKCPLVTKPYYLWGSLHVASHLKENLGNECHPLGDKMKKNENKNESNTSYKLPDGSIIDQTTCESLKLIFPYIFFKKKYNQNSVTKLAGITTLQNMDFNSFYDSLKTLKLPVLYKHNYRINASSSVLERVPDNPADKNSNICNSDQIDTYFEIFDGLQDFIKKGILSFISANMTLDEVLNFLIVTGESTMFHNFIGILKSYLPFIDTIKEKSTQLIYSKGADRKCNCFIGASILSSLGTFPQFCMTKSEYEEYGVKNIVDKKCV", "soluble on expression in E. coli": "not soluble"}
{"sequence": "MSLLNKEALVNRLNASAKRQKADIVIKNGKIMDVYNQEWIYEDIAITDGVIVGLGEYEGENIIDAEGQMIVPGFIDGHVHIESSMVTPIEFAKAVLPHGVTTVVTDPHEIANVSGEKGIEFMLEQARHTPLNIHFMLPSSVPAASFERSGAILKAADLKPFYEEEEVLGLAEVMDYVSVQQAEKDMVQKLLDARVAGKRIDGHLAGLSTDLINIYRTAFVLNDHEVTSKEEALDRIRRGMYVMMREGSVAKNTLNVLPAVNEKNARRFFFCTDDKHVDDLLSEGSVNHQVKMAIQAGLNPFLAYQLGSLNAAECYGLDTKGAIAPGFDADLLFVSDLENVTVTMAMVKGQTVAEDSKAVYQDHASTAAPDQALLDSVKLAAPLNKQDFHMPIDSEQQINVIQIIPNQLETRLVQVPAPVAREFEPDTELDLLKIAVVERHKGLKETGLGVVKGFGFKSGAIATTISHDSHNIIAVGTNDEDIAAAVNKLQEIGGGLTIIKNGEELHSVPLPIAGLLSDQSAEQVNQSLLTLHDKLSLIGFTGGFNPFLTLSFLALPVIPDIKMTTTGLFDVKSFQHISLQEGHHHHHH", "soluble on expression in E. coli": "soluble"}
{"sequence": "MANYPKELPAQTQSRQPGIESEMNPSPVYEYEDYKGADKLKGKVALITGGDSGIGRAVSVAYAKEGADIAIVYKDEHEDAEETKKRVEQEGVKCLLIAGDVGEEEFCNEAVEKTVKELGGLDILVNNAGEQHPKESIKDITSEQLHRTFKTNFYSQFYLTKKAIDYLKPGSAIINTTSINPYVGNPTLIDYTATKGAINAFTRTMAQALVKDGIRVNAVAPGPIWTPLIPATFPEETVAQFGQDTPMGRPGQPVEHVGCYVLLASD", "soluble on expression in E. coli": "not soluble"}
{"sequence": "MGSDKIHHHHHHMPKRIVKLEAGYNCRDLGGYVSQDGRTVKWGRLYRSGSLSHLTKADQAELARRKIVVDCDLRSRHEQDNFPDKLWPGSKLVDAHFYSESGDEEEEAEAAWEKYSSKLPKLSYLAMVYQQNLVVPRTGLVMREIFKEMLDLEDDEALLYHCSMGKDRTGMVSVIVLMALGLEDREILRDYLLSREYSRDWDEADENDRLGKQIAKMNQTQVSQTAFYGITETIRQMWGGFDRYFASLGFDQGDLDRLRDKFLE", "soluble on expression in E. coli": "not soluble"}
